Data taken from patent US20260199429A1.

Key:
[1] = biological target: Sturgeon PYY(1-36) (sturgeon)
[2] = biological target: Sea Lamprey PYY(1-36) (sea lamprey)

DPP-4 half-life [1]: > 8 h
DPP-4 half-life (Trout PYY (trout)): > 8 h
DPP-4 half-life [2]: > 8 h
DPP-4 half-life (Human PYY(1-36) (human)): < 2 h
DPP-4 half-life (Bowfin PYY (bowfin)): > 8 h
Substance: purified DPP-4 (enzyme)
